Details in all cases: both partners purified
Experiment [1] addresses T1, CIN85_(1-333) (human, UniProt Q96B97 1-333, 15N-labeled in the PRE experiment; unlabeled in the HSQC titration).
T1 construct: CIN85 (SH3KBP1), human, residues 1-333 with the three N-terminal SH3 domains, lacking the C-terminal coiled coil; also called monomeric CIN85; source: E. coli BL21(DE3), purified (Ni-NTA, TEV cleavage, size exclusion); not shown: His7, N-terminal, cleaved
T1 sequence (looked up): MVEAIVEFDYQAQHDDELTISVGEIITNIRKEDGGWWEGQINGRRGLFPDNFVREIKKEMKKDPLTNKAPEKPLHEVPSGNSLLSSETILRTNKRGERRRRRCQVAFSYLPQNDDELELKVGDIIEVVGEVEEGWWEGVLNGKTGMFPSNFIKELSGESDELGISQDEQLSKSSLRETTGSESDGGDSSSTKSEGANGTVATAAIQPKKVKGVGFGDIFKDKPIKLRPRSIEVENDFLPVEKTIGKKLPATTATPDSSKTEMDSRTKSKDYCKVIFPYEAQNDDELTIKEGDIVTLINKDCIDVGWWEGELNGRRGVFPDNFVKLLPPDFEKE
As to the kind of experiment: NMR titration; 15N-HSQC of 60 µM 15N-labeled SLP65_(1-330) titrated with increasing amounts of unlabeled CIN85_(1-333); 293 K; 20 mM HEPES pH 7.2, 100 mM NaCl, 1 mM TCEP, 0.5 mM Pefabloc.

The next experiment deals with T2, CIN85Δ57 (human, UniProt Q96B97 1-665, deletion of residues 369-425).
T2 construct: CIN85 (SH3KBP1), human, amplified with primers from the start ATG to the stop codon, residues 369-425 deleted; The tag and its cleavage follow only from 'Protein expression and purification was performed as described above'; also called trimeric CIN85Δ57; source: E. coli, modified pET28a vector, purified as the other constructs; not shown: His7, N-terminal, cleaved
The experiment is described as follows: NMR titration; 15N-HSQC of 15 µM 15N-labeled SLP65_(1-330) with CIN85Δ57 added, without or with SUVs (phase-separated samples); peak intensity ratio over SLP65 only; 293 K; 20 mM HEPES pH 7.2, 100 mM NaCl, 1 mM TCEP.

The target of experiment [2] is T1, CIN85_(1-333). As to the kind of experiment: NMR paramagnetic relaxation enhancement (1H R2-PRE); 15N-labeled CIN85_(1-333) mixed with MTSL-tagged SLP65 constructs at 10:1 molar ratio; TROSY with two-point delay; constructs without MTSL with 1 mM TCEP as diamagnetic reference; 293 K.

B1: SLP65_(1-330) (domain or fragment, human, UniProt Q8WV28 1-330, looked up)
chain: MDKLNKITVPASQKLRQLQKMVHDIKNNEGGIMNKIKKLKVKAPPSVPRRDYASESPADEEEQWSDDFDSDYENPDEHSDSEMYVMPAEENADDSYEPPPVEQETRPVHPALPFARGEYIDNRSSQRHSPPFSKTLPSKPSWPSEKARLTSTLPALTALQKPQVPPKPKGLLEDEADYVVPVEDNDENYIHPTESSSPPPEKAPMVNRSTKPNSSTPASPPGTASGRNSGAWETKSPPPAAPSPLPRAGKKPTTPLKTTPVASQQNASSVCEEKPIPAERHRGSSHRQEAVQSPVFPPAQKQIHQKPIPLPRFTEGGNPTVDGPLPSFSS
modifications: 15N-labeled
notes: SLP65 (BLNK), human, residues 1-330 (without the C-terminal SH2 domain); also called BLNK; Src homology (SH) 2 domain-containing leukocyte protein of 65 kDa; source: E. coli BL21(DE3), purified (Ni-NTA, TEV cleavage, size exclusion); not shown: His7, N-terminal, cleaved
B1: the binding result in the experiment with CIN85_(1-333) [1] and with CIN85Δ57 was “binds” in each case.

B2: SLP65_(40-330), MTSL-tagged at C271 (domain or fragment, human, UniProt Q8WV28 40-330, looked up)
chain: KVKAPPSVPRRDYASESPADEEEQWSDDFDSDYENPDEHSDSEMYVMPAEENADDSYEPPPVEQETRPVHPALPFARGEYIDNRSSQRHSPPFSKTLPSKPSWPSEKARLTSTLPALTALQKPQVPPKPKGLLEDEADYVVPVEDNDENYIHPTESSSPPPEKAPMVNRSTKPNSSTPASPPGTASGRNSGAWETKSPPPAAPSPLPRAGKKPTTPLKTTPVASQQNASSVCEEKPIPAERHRGSSHRQEAVQSPVFPPAQKQIHQKPIPLPRFTEGGNPTVDGPLPSFSS
modifications: nitroxide spin label MTSL on C271
notes: SLP65 (BLNK), human, residues 40-330, naturally contains a single cysteine (C271); also called MTSL-tagged SLP65 constructs; source: E. coli BL21(DE3), purified (Ni-NTA, TEV cleavage, size exclusion); not shown: His7, N-terminal, cleaved
Regarding B2, the binding result in the experiment with CIN85_(1-333) [2] was “binds”.

B3: SLP65_(40-330) (C271A, Q302C), MTSL-tagged (domain or fragment, human, UniProt Q8WV28 40-330, looked up)
chain: KVKAPPSVPRRDYASESPADEEEQWSDDFDSDYENPDEHSDSEMYVMPAEENADDSYEPPPVEQETRPVHPALPFARGEYIDNRSSQRHSPPFSKTLPSKPSWPSEKARLTSTLPALTALQKPQVPPKPKGLLEDEADYVVPVEDNDENYIHPTESSSPPPEKAPMVNRSTKPNSSTPASPPGTASGRNSGAWETKSPPPAAPSPLPRAGKKPTTPLKTTPVASQQNASSVAEEKPIPAERHRGSSHRQEAVQSPVFPPAQKCIHQKPIPLPRFTEGGNPTVDGPLPSFSS
modifications: nitroxide spin label MTSL on the single cysteine (Q302C)
notes: SLP65 (BLNK), human, residues 40-330; also called MTSL-tagged SLP65 constructs; source: E. coli BL21(DE3), purified (Ni-NTA, TEV cleavage, size exclusion); not shown: His7, N-terminal, cleaved
With B3, in the experiment with CIN85_(1-333) [2], the binding result is reported as “binds”.

B4: SLP65_(40-330) (C271A, S141C), MTSL-tagged (domain or fragment, human, UniProt Q8WV28 40-330, looked up)
chain: KVKAPPSVPRRDYASESPADEEEQWSDDFDSDYENPDEHSDSEMYVMPAEENADDSYEPPPVEQETRPVHPALPFARGEYIDNRSSQRHSPPFSKTLPSKPCWPSEKARLTSTLPALTALQKPQVPPKPKGLLEDEADYVVPVEDNDENYIHPTESSSPPPEKAPMVNRSTKPNSSTPASPPGTASGRNSGAWETKSPPPAAPSPLPRAGKKPTTPLKTTPVASQQNASSVAEEKPIPAERHRGSSHRQEAVQSPVFPPAQKQIHQKPIPLPRFTEGGNPTVDGPLPSFSS
modifications: nitroxide spin label MTSL on the single cysteine (S141C)
notes: as for B3
For B4, in the experiment with CIN85_(1-333) [2], the binding result is reported as “binds”.

B5: SLP65_(40-330) (C271A, S236C), MTSL-tagged (domain or fragment, human, UniProt Q8WV28 40-330, looked up)
chain: KVKAPPSVPRRDYASESPADEEEQWSDDFDSDYENPDEHSDSEMYVMPAEENADDSYEPPPVEQETRPVHPALPFARGEYIDNRSSQRHSPPFSKTLPSKPSWPSEKARLTSTLPALTALQKPQVPPKPKGLLEDEADYVVPVEDNDENYIHPTESSSPPPEKAPMVNRSTKPNSSTPASPPGTASGRNSGAWETKCPPPAAPSPLPRAGKKPTTPLKTTPVASQQNASSVAEEKPIPAERHRGSSHRQEAVQSPVFPPAQKQIHQKPIPLPRFTEGGNPTVDGPLPSFSS
modifications: nitroxide spin label MTSL on the single cysteine (S236C)
notes: as for B3
B5: the binding result with CIN85_(1-333) [2] is reported as “binds”.

The values above are taken from article PMC7016142, “Tripartite phase separation of two signal effectors with vesicles priming B cell responsiveness” (Nature Communications, 2020).
